Laboratory results reported in article PMC11712212 (Chemical Science, 2024).
Bridge positions count the residues as written; N and C are the ends. Ends that are not written are not given here. Peptide text beside a SMILES is read from it.

Columns and labels:
DV12 ([…]) = DV12 ([…]) (Homo sapiens, UniProt P63165); assay: Biolayer interferometry; format: binding
QTGG = QTGG (Homo sapiens, UniProt P63165); assay: Isothermal titration calorimetry; format: binding
[1] = biological target: T1, QTGG, short SUMO-1 remnant after trypsin and Glu-C digestion; assay: ITC
T1 sequence (peptide): QTGG

SUMO-1 protein = SUMO-1 protein (UniProt P63165 1-97); assay: BLI
Sequence of SUMO-1 protein (P63165 1-97): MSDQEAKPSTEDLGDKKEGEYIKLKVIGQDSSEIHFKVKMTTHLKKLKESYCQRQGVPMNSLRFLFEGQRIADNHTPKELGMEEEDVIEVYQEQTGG

Molecule `CC(C)C[C@H](NC(=O)[C@@H](N)CCCCN)C(=O)N[C@@H](CCCNC(=N)N)C(=O)N[C@@H](Cc1c[nH]c2ccccc12)C(=O)N[C@H](C(=O)N[C@@H](CC(=O)O)C(=O)N[C@@H](Cc1ccc(O)cc1)C(=O)N[C@@H](C)C(=O)N[C@@H](CCCCN)C(=O)N[C@@H](CCCCN)C(=O)N[C@@H](CCCNC(=N)N)C(=O)N[C@@H](CCCCN)C(=O)O)[C@@H](C)O` [PEP-4, KLRWTDYAKKRK] (H-KLRWTDYAKKRK-OH) has a Kd (DV12 ([…])) of 2 nM.

`CC(C)C[C@@H]1NC(=O)[C@H](Cc2c[nH]c3ccccc23)NC(=O)[C@H](CCCCN)NC(=O)[C@H](CCC(=O)O)NC(=O)[C@@H]2CCCN2C(=O)[C@@H](N)CSSC[C@@H](C(=O)O)NC(=O)[C@H]([C@@H](C)O)NC(=O)CNC1=O` [CP-1, CPEKWLGTC] (HELM PEPTIDE1{C.P.E.K.W.L.G.T.C}$PEPTIDE1,PEPTIDE1,1:R3-9:R3$$$V2.0; N-terminus and C-terminus assumed) was tested, and the Kd (QTGG) was 71.8 nM.

Work on CMTPNPTTC (disulfide 1-9) [CP-2 (…)] yielded a Kd [1] of 1800 nM.

Work on KLRWTDYAKKRK [PEP-4 (KLRWTDYAKKRK)] yielded a Kd (SUMO-1 protein) of 43.7 nM.

Molecule CPEKWLGTC (disulfide 1-9) [CP-1 (…), cystine-linked cyclic peptide] has a Kd [1] of 71.8 nM.
